According to patent US20240383964A1, “De Novo Designed alpha(5) beta(1) Integrin selective minibinders” (UNIVERSITY OF WASHINGTON, priority 2023, published 2024):
Blank lines part the entries; values can stand above or below the molecule they belong to. The star is where a group is joined. Biotin = O=C1N[C@H]2[C@H](CS[C@H]2CCCCC(=O)*)N1

Key:
integrin α5β1 [1] = molecular target: T1, integrin α5β1 (UniProt P08648 42-995; P05556 21-728); test: BLI (Octet), minibinder on the sensor, integrin α5β1 in solution at labelled concentrations up to 200 nM; buffer 1 mM Ca2+, 1 mM Mg2+, pH 5 [lower left panel]
T1 construct: also called alpha(5) beta(1) integrin; a5b1
T1 sequence (P08648 42-995, chain 1 of 2): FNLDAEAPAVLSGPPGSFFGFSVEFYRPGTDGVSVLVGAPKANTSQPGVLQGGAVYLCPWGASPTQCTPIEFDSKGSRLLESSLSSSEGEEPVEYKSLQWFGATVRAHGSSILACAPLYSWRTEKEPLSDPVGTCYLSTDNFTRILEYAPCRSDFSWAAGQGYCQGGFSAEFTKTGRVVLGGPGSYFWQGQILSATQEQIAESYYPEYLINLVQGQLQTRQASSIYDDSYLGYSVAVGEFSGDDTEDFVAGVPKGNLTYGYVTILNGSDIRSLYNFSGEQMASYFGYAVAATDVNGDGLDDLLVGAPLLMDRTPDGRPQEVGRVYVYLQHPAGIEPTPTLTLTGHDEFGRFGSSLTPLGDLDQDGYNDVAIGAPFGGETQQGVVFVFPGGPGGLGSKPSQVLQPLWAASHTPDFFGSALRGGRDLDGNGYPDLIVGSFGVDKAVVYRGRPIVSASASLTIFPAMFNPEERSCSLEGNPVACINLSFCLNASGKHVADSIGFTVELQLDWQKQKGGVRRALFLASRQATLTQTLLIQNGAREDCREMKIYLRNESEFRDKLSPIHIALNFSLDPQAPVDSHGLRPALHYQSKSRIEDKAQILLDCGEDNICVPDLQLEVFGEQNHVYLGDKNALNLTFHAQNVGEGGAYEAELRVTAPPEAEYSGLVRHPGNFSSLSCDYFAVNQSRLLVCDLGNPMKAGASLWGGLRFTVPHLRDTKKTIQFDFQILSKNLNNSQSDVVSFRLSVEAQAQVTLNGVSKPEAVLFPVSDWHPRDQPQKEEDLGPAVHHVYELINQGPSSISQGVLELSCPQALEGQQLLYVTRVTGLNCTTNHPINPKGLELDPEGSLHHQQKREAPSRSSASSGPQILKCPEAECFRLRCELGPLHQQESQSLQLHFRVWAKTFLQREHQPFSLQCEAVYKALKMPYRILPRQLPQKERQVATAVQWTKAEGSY
T1 sequence (P05556 21-728, chain 2 of 2): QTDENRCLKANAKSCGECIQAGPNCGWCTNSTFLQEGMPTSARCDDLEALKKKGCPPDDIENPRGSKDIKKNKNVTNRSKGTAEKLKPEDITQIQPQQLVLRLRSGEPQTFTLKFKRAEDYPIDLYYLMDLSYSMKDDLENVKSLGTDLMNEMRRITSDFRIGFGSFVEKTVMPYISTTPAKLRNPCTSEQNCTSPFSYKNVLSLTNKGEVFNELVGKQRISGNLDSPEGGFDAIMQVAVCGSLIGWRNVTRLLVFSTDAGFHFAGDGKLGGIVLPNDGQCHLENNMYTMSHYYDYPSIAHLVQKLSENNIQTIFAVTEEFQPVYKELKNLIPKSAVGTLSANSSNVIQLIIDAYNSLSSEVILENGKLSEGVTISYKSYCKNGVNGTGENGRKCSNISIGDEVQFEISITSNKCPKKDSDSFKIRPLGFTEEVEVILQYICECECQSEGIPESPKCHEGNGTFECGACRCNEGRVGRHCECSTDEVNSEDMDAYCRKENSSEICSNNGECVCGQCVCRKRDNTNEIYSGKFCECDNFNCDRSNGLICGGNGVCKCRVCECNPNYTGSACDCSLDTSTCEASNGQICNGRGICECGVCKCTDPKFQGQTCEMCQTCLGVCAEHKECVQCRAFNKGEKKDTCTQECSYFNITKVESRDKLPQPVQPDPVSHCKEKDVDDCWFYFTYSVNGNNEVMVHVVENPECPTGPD
Protocol: (§1) The binding affinity of each variant was calculated as described in Cao et al, 2022. By combining the beneficial mutations, combination libraries were constructed and screened for binding to α5β1 at an affinity as low as 200 pico-molar (FIG. 4). […] Because RGD binding depends on metal ions, the binders were tested for binding to integrin without metal ions. […] Similarly, mutating the RGD motif to GGG also abolished the binding ability. […] This is surprising, and provides a tool to track integrin α5β1 in endosome and lysosome.
(§2) Prior to measurements, streptavidin-coated biosensors were first equilibrated for at least 10 min in assay buffer. Protein binders with an N-terminal biotin were immobilized onto the biosensors by dipping them into a solution with 100 nM protein until the response reached between 10% and 50% of the maximum value followed by dipping sensors into fresh buffer to establish a baseline for 120 s. Titration experiments were performed at 25 degrees Celsius while rotating at 1000 rpm. Association of integrins was allowed by dipping biosensors in solutions containing designed protein diluted in buffer until equilibrium was approached followed by dissociation by dipping the biosensors into fresh buffer solution to monitor the dissociation kinetics.

integrin α8β1 = molecular target: T2, integrin α8β1 (UniProt P53708 39-1012; P05556 21-728); test: BLI (Octet), minibinder on the sensor, integrin α8β1 in solution [panel α8β1]
T2 construct: also called a8b1
T2 sequence (P53708 39-1012, chain 1 of 2): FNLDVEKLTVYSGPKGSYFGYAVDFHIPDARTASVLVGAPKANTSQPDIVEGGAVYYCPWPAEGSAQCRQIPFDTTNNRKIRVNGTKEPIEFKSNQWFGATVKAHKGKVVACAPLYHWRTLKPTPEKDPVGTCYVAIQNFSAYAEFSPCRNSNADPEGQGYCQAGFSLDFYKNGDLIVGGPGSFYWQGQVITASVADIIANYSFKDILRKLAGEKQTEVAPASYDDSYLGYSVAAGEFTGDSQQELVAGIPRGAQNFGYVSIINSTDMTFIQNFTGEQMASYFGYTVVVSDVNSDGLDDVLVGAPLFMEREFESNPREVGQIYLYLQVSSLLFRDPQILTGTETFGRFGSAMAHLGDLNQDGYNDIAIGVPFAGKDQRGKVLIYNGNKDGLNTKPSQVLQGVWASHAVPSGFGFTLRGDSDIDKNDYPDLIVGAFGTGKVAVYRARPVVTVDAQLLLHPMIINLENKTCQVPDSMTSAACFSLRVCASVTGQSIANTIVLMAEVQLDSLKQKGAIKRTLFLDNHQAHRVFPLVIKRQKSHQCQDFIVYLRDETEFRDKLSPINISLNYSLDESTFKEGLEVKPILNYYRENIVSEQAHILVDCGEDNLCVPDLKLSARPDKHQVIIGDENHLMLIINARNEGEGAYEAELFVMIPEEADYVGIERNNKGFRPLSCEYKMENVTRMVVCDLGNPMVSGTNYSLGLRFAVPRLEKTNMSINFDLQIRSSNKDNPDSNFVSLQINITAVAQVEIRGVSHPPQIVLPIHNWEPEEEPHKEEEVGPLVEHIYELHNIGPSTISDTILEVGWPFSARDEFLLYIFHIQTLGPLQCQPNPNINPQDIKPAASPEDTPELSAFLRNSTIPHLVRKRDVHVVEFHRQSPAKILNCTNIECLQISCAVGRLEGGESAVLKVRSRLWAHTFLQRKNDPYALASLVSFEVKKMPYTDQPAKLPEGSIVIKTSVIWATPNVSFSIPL
T2 sequence (P05556 21-728, chain 2 of 2): as the sequence (P05556 21-728, chain 2 of 2) above
Protocol: (§3) Because of the large size of integrin and the distribution of integrin α5β1 on the cell surface, it was of interest to measure the affinity of the binders on the cell surface. Using wild type A562, the binding affinity of binders to α5β1 was measured, which is the only RGD binding integrin expressed in WT A562.
as §2, with “kinetics. In the minibinder binding cross specificity assays each biotinylated minibinder was loaded onto streptavidin biosensors in equal amounts followed by 2 min of baseline equilibration. The association and dissociation with all the different binders were allowed for 900-1500 s for each step. […]” for “kinetics.”

integrin α5β1 [2] = molecular target: T1, integrin α5β1; test: BLI, integrin resting buffer (1 mM MgCl2, 1 mM CaCl2, pH 7.4), binder immobilised; BLI, integrin resting buffer pH 7.4 with 1 mM MgCl2, 1 mM CaCl2
Protocol: as §1, §2

integrin αvβ8 = molecular target: T3, integrin αvβ8 (UniProt P06756 31-992; P26012 43-684); test: BLI (Octet), minibinder on the sensor, integrin αvβ8 in solution [panel αvβ8]
T3 construct: also called avb8
Protocol: as §3
as §2, with “kinetics. In the minibinder binding cross specificity assays each biotinylated minibinder was loaded onto streptavidin biosensors in equal amounts followed by 2 min of baseline equilibration. The association and dissociation with all the different binders were allowed for 900-1500 s for each step. […]” for “kinetics.”

integrin αvβ1 = molecular target: T4, integrin αvβ1 (UniProt P06756 31-992; P05556 21-728); test: BLI (Octet), minibinder on the sensor, integrin αvβ1 in solution [panel αvβ1]
T4 construct: also called avb1
Protocol: as §3
as §2, with “kinetics. In the minibinder binding cross specificity assays each biotinylated minibinder was loaded onto streptavidin biosensors in equal amounts followed by 2 min of baseline equilibration. The association and dissociation with all the different binders were allowed for 900-1500 s for each step. […]” for “kinetics.”

[3] = molecular target: T5, integrin α5β1 on the cell surface (UniProt P08648 42-1049; P05556 21-798); test: cell surface titration on wild type K562 cells, readout Binder Bound Cells (%)
T5 construct: whole, on cells; HUVECs in the functional assays; also called α5β1 on wild type K562 (printed also A562) cells; α5β1 on HUVECs
T5 sequence (P08648 42-1049, chain 1 of 2): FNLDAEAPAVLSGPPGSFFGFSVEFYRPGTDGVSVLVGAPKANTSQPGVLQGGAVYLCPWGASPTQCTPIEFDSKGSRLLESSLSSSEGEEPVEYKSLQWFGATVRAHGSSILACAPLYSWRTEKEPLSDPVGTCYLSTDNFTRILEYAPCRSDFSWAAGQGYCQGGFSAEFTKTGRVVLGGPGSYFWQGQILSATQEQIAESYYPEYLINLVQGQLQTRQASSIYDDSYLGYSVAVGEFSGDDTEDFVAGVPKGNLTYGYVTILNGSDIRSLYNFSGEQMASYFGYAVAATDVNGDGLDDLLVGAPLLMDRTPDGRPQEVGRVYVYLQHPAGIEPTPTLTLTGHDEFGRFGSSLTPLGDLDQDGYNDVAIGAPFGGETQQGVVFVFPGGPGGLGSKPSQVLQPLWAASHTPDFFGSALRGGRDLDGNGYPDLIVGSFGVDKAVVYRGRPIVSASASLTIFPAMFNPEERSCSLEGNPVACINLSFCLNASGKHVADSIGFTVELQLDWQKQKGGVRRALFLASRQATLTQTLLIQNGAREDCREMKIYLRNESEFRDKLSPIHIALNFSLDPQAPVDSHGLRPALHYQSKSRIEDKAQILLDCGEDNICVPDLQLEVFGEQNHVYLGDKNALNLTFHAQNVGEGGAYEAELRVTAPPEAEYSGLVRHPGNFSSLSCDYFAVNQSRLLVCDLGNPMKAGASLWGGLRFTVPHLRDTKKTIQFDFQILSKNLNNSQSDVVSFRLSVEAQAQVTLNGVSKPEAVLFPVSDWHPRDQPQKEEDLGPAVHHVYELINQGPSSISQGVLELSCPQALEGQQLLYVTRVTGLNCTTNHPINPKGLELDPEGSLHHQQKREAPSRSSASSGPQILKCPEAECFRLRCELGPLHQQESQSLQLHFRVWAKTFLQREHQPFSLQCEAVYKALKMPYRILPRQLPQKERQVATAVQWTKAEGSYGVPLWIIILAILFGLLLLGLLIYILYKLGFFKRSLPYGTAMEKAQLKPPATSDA
T5 sequence (P05556 21-798, chain 2 of 2): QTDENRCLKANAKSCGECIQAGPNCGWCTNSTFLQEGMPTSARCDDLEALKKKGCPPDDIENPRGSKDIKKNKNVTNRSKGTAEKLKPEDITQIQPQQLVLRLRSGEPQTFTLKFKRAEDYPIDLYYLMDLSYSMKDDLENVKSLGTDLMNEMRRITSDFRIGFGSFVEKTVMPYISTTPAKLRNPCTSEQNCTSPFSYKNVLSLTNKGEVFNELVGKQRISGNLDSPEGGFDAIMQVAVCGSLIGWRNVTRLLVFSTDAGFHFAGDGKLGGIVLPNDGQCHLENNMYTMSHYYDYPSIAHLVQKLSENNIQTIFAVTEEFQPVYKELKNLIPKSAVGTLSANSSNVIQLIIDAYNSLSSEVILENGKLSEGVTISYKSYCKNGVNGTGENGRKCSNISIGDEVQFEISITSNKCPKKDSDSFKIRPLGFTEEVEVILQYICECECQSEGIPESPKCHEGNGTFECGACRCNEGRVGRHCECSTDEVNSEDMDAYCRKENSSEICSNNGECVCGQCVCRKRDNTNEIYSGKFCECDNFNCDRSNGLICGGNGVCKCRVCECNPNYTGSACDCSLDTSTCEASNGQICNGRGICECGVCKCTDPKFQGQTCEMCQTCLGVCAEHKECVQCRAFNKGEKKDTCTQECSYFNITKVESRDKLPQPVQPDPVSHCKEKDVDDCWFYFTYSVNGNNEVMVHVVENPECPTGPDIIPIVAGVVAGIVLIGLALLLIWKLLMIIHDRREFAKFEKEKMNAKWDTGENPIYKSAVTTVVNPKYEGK

integrin αvβ3 = molecular target: T6, integrin αvβ3 (UniProt P06756 31-992; P05106 27-718); test: BLI (Octet), minibinder on the sensor, integrin αvβ3 in solution [panel αvβ3]
T6 construct: also called avb3
Protocol: as §3
as §2, with “kinetics. In the minibinder binding cross specificity assays each biotinylated minibinder was loaded onto streptavidin biosensors in equal amounts followed by 2 min of baseline equilibration. The association and dissociation with all the different binders were allowed for 900-1500 s for each step. […]” for “kinetics.”

integrin α5β1 [4] = molecular target: T1, integrin α5β1; test: BLI (Octet), 00179_v4.1 RGD→GGG on the sensor, integrin α5β1 in solution; 1 mM Ca2+, 1 mM Mg2+, pH 7.4 [lower right panel]
Protocol: as §1, §2

HUVECs = test: Scratch-wound cell migration assay; type: cell-based, human; conditions: 20 nM, 12 hours, compared to PBS control
Protocol: FIG. 2. (A) BLI binding affinity traces for minibinder or ^8RGD^10/GGG mutant against α5β1 in indicated buffers. Minibinder affinity to integrin α5β1 is dependent on metal ion presence and RGD motif. All affinity data was collected by Octet™ R8 and binding affinity was estimated by the Octet™ ForteBio software package. (B) Minibinder has no detectable affinity in presence of 500 nM or 1000 nM integrin αvβ1, αvβ3, αvβ6, αvβ8 and α8β1. (C) Cell surface titration of minibinder 4584_V5.3 and 00179_v4.1 against K562 cells wild type. […] Integrin α5 subunit and β1 subunit were stained with integrin α5 and active integrin β1 subunit specific antibody, respectively. (E) Quantification of (D). Quantification was counted as a percentage of mb-sheets that colocalized with staining of a5 and b1, a5 only, b1 only, or none; 30-35 sheets were counted in each biological repeat. […] Minibinders were added to HUVEC cells at 0, 0.1, 1, 10, and 100 nM. Vascular stability was analyzed at 12-h timepoints. 20 images were taken in each well at random locations. The scale bar is 100 μm. (G) Quantification of (F). The number of nodes, meshes, and tubes from images in (F) were quantified using an angiogenesis analyzer plug-in in ImageJ. Statistical significance of each were analyzed using One-way Anova Bonferroni's multiple comparison test. […] The wound area of T0 and T12 time points were quantified using imageJ and level of cell migration were calculated using this equation (AreaT0-T12)/AreaT0, all samples were normalized to PBS as fold change.
The inhibitory effect of 20 nM soluble 00179_v4.1 on cell migration was assessed using the scratch-wound assay. HUVECs were seeded with either 00179_v4.1 or PBS (used as a […] control) for 12 hours before capturing images for analysis.

Kd (integrin α5β1 [1]): 40 nM
binding result (integrin α8β1): no binding (tested: 500 nM)
Kd (integrin α5β1 [2]): 0.3 nM
binding result (integrin αvβ8): no binding (tested: 500 nM)
binding result (integrin αvβ1): no binding (tested: 500 nM)
EC50 (read off the curve) [3]: ~2 nM
binding result (integrin αvβ3): no binding (tested: 500 nM)
B1: xw_a5b1_00179_v4.1 (designed binder)
chain: SELIIHGRGDFPSSELERLRERFERLGIKVRVDHKVLTLIGISEEEAERLARELRKRGIWVEIRK
modifications: also: N-terminal avi-tag/biotin for BLI, His6 tag at N- or C-terminus, tag sequences not given here
notes: a His6 tag stood at the N- or C-terminus

binding result (integrin α5β1 [4]): no binding (tested: 1000 nM)
B2: 8RGD10/GGG mutant of minibinder 00179_v4.1 (designed binder)
chain: Biotin-SELIIHGGGGFPSSELERLRERFERLGIKVRVDHKVLTLIGISEEEAERLARELRKRGIWVEIRK
notes: also called RGD/GGG mutant

binding result [3]: binds
B3: xw_a5b1_004584v5.3 (designed binder)
chain: GEVEVHGRGDIPRSSLELFEKVAKELGLKVERNHRTVTVKGVSEEQIRELEEVAKKLGLWVLVRVTE
notes: Tags of the construct as assayed are not specified

B4: C6-mb: hexamer formed by mixing 00179_v4.1_N-term-LHD101A (SEQ ID NO:16) and C6-71-9-1_101B (SEQ ID NO:17) at 6:1 ratio (protein)
chain 1: MSGRQEKVLKSIEETVRKMGVTMETHRSGNEVKVVIKGLHIKQQRQLYRDVRETSKKQGVETEIEVEGDTVTIVVREGGSGGSELIIHGRGDFPRSELERLRERFERLGIKVRVDHKVLTLIGISEEEAERLARELRKRGIWVEIRKGSGSHHWGSTHHHHHH
chain 2: MGRQEKVLKSIEETVRKMGVTMETHRSGNEVKVVIKGLHESQQEQLLEDVLRTAEKQGVRVRIRFKGDTVTIVVREGSPEEILERAKESLERAKEAFERGDEEEFRKAAEKALELAKRLVEQAKKEGDPELVFEAARVALWVAWLAAWFGDKEVFKKAAESALEVAKRLVEVAKEEGDPELVLKAAFVALLVAIMAVILGDKEVFKKAAESALEVAKRLVEIAAREGDPELVEEAAKVAELVRELAKLMGDEEVYEKARETAREVRLFLLFVRIWEGGGGSLEHHHHHH
modifications: 6:1 hexameric assembly; VARIANT 1 optionally absent; VARIANT 148..163 optionally absent; VARIANT 282..289 optionally absent
cell migration (HUVECs): even more pronounced inhibition of cell migration
cell migration (HUVECs; listed as C6-oligomer): inhibits cell migration
